6 molecules from patent publication US20220153853A1 (JIANGSU HENGRUI MEDICINE, published 2022) can be followed below.

Changes are numbered by the printed parent chain.

The labels stand for the following.
B1: ch1810 (antibody, human IgG4 S228P, kappa, F234A L235A, V domains shown)
VH: QVQLQQSGTELARPGTSVTLSCKASGYTFTNYAISWVKQRTGQGLEWIGEIYPTSGNTYYNEKFKGKATLTADRSSKTMYMELRSLTSVDSAVYFCASGVITTVVSTDYFDYWGQGSPLTVSS
VL: DIQMTQIPSSLSVSLGDRVTISCRASLDISNYLNWYQLKPDGTVKLLIYYTSTLHSGVSSRFSGSGSGTEYSLTISNLEQEDIATYFCQQGNMVPYTFGGGTKLEIKR
B2: ch1817 (antibody, human IgG4 S228P, kappa, F234A L235A, V domains shown)
VH: EVQLVESGGDLVQPGRSMKLSCAASGFTFSNYYMAWVRQAPTKGLEWVASISTGGVNTYYRDSVKGRFTISRDNAKNNLYLQMDSLRSEETATYYCARHTTADYFYGIYFALDAWGQGTSVTVSS
VL: QFTLTQPKSVSGSLRSTITIPCERSSGDIGDSYVNWYQQHLGRPPLNVIYADVQRPSEVSDRFSGSIDSSSNSASLTITNLQMDDEADYFCQSYDTNIDIIFGGGTKLTVLR
notes: IgG4-AA / kappa chimeric antibody
B3: ch1822 (antibody, human IgG4 S228P, kappa, F234A L235A, V domains shown)
VH: B2 VH with Q3R, L11F, M18V, A49G, K76E, N77S, N78T, A102P, F105H, L112M
VL: B2 VL with F2V, D31E, L46I, V53D, M83V, T96S, N97S, I101F
notes: as for B2
B4: ch1803 (antibody, human IgG4 S228P, kappa, F234A L235A, V domains shown)
VH: QFQLHQSGAELVKPGASVKLSCKATGYTFTDYWIEWVKQRPGHGLEWIGEILPGSTYTNYNEKFKGRATFTAEPSSSSAYMQLSGLTTEDSAIYYCSRGLSTLMAVDYFDYWGQGTTLTVSS
VL: DIQMTQTTSSLSASLGDRVTINCRASQDISNYLNWYQQKPDGTVKLLIYYSSTLHSGVPSRFSGSGSGTDYSLTISHLEQEDIATYFCQQTNIFPWTFGGGTKLEIRT
notes: as for B2
B5: hu1810-10 (antibody, human IgG4 S228P, kappa, F234A L235A, V domains shown)
VH: QVQLVQSGAEVKKPGSSVKVSCKASGGTFSNYAISWVRQAPGQGLEWMGEIYPTSGNTYYNEKFKGRVTITADRSTSTMYMELSSLRSEDTAVYYCASGVITTVVSTDYFDYWGQGTLVTVSS
VL: DIQMTQSPSSLSASVGDRVTITCRASLDISNYLNWYQLKPGKAVKLLIYYTSTLHSGVSSRFSGSGSGTEYTLTISSLQPEDFATYYCQQGNMVPYTFGGGTKVEIKR
B6: hu1810-11 (antibody, human IgG4 S228P, kappa, F234A L235A, V domains shown)
VH: B5 VH with M48I, V68A, I70L
VL: B5 VL

The first test deals with T1, human GCGR (full-length glucagon receptor of 477 amino acids) (human, UniProt P47871 26-477). Kind of test: cell-based or functional assay.
T1 sequence (P47871 26-477 limits assumed): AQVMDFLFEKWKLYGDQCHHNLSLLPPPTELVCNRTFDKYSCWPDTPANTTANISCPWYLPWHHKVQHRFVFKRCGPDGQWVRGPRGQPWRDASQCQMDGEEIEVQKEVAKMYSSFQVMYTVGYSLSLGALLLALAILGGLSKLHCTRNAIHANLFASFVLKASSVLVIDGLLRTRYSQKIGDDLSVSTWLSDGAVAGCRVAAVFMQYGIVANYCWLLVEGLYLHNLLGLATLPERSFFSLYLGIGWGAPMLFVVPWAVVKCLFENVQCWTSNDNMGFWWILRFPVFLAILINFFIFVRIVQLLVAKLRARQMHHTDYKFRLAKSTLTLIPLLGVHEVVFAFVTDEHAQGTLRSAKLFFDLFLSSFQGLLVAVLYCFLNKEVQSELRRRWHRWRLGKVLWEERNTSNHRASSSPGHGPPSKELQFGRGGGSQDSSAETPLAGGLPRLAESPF
For orientation: IC50 means the concentration that gives 50% inhibition. Regarding B1, the “IC50” value was 72.5 nM and the Imax came to 100%.

Take B2: the “IC50” value was 59.8 nM and the Imax was determined as 83%.

B3: the “IC50” value turned out to be 62.5 nM and the Imax was 59%.

B4: the “IC50” value came out at 79.3 nM and the Imax turned out to be 100%.

In a further test the target is T2, Mouse GCGR (mouse, UniProt Q61606 27-485). Kind of test: cell-based or functional assay.
T2 sequence (Q61606 27-485): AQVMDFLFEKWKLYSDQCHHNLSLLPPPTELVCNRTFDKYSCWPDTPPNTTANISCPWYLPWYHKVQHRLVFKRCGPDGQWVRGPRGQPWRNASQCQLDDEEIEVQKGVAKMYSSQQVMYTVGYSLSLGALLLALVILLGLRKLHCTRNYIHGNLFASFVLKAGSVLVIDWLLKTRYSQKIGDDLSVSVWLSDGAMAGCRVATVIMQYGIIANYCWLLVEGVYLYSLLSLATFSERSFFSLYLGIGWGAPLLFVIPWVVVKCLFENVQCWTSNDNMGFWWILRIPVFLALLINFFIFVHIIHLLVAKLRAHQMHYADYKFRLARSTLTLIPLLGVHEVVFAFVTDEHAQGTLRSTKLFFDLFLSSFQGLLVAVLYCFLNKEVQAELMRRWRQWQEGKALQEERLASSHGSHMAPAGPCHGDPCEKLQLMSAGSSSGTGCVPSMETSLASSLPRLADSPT
As for B2, the “IC50” value worked out at 12.8 nM and the “Imax (%)” value stood at 96%.

With B3, inhibition was half-maximal at 16 nM (IC50) and the “Imax (%)” value worked out at 87%.

With B4, the “IC50” value stood at 24.7 nM and the “Imax (%)” value was determined as 93%.

Another test addresses T1, human GCGR (full-length glucagon …). The experiment in a line: cell-based or functional assay. This is another data set of the same source.
In the case of B5, the “IC50” value was 95.6 nM and the Imax turned out to be 97.4%.

As to B6, the concentration for half-maximal inhibition (IC50) came out at 91.3 nM and the Imax came out at 99.6%.

A further test has the same target. The experiment in a line: cell ELISA on fixed CHO cells overexpressing GCGR. On the procedure: (§1) The expression levels of GCGR were detected after two weeks of pressure screening, After the GCGR-overexpressing cells were fixed to the bottom of 96-well plate, the antibodies were added and the signal strength was used to determine the binding activity of the antibody to GCGR overexpressing CHO cells. The binding abilities of the antibody to the three species of GCGRs were detected with the same binding assay. As an example, the binding of the GCGR antibodies to human GCGR was detected by an assay specifically described as follows:
(§2) The cells were seeded in a 96-well plate at a density of 0.9-1.0×10⁶/ml, 100 μl/well and cultured overnight. The supernatant was discarded, the plate was washed three times with PBS, 100 μl/well of cell immune fixed solution (Beyotime, Cat No. P0098) was added and fixed for an hour at room temperature, and washed four times with PBS. The liquid was discarded, 200 μl/well blocking solution (5% skim milk (BD skim milk, Cat Wo. 232100) diluted with PBS) was added, and incubated in an incubator at 37° C. for 3 hours for blocking. After the blocking was finished, the blocking solution was discarded, the plate was washed 3 times with PBST buffer (PBS comprising 0.05% tweenW-20, pH7.4), 50 μl/well of various concentrations of each of the test antibodies (antibodies purified from hybridoma, chimeric antibodies or humanized antibodies) diluted with sample dilution solution were added, and incubated in an incubator at 37° C. for 2 hours. After the incubation was finished, the plate was washed 3 times with PBST, 50 μl/well of HRP-labeled goat anti-mouse secondary antibody (JacksoW ImmuWo Research, Cat No. 115-035-003) or goat anti-human secondary antibody (JacksoW ImmuWo Research, Cat Wo. 109-035-003) diluted with sample dilution solution was added, and incubated at 37° C. for 1 hour. The plate was washed 3 times with PBST, 50 μl/well of TMB chromogenic substrate (KPL, Cat Wo. 52-00-03) was added, incubated at room temperature for 10 min, and 50 μl/well of 1M H₂SO4 was added to stop the reaction. The absorbance value was read by a microplate reader (Thermo scientific Multiskan MK3) at a wavelength of 450 nm, and the data was analyzed with GraphPad Prism 5. The binding of GCGR chimeric antibodies to GCGR-overepressing CHO cells was calculated as EC50 value.
For orientation: An ELISA detects its analyte on a solid surface through an enzyme-linked reagent.
As a reminder, the EC50 is the concentration that produces a half-maximal response. Regarding B1, the EC50 worked out at 0.117 nM.

With B2, the EC50 is 0.193 nM.

B3: the EC50 was 0.383 nM.

Regarding B4, a half-maximal response (EC50) required 0.117 nM.

The target in another test is T2, Mouse GCGR. Kind of test: cell ELISA on fixed CHO cells overexpressing GCGR. On the procedure: as §1, §2
Regarding B1, it took 0.442 nM to reach a half-maximal effect (EC50).

In turn, B2 came in with an EC50 of 0.164 nM.

Take B3: the EC50 came to 0.568 nM.

B4 yielded an EC50 of 0.718 nM.

A further test deals with T3, Cynomolgus monkey GCGR (cynomolgus monkey).
T3 construct: whole, on cells; also called cynomolgus GCGR
Kind of test: cell ELISA on fixed CHO cells overexpressing GCGR. On the procedure:
as §1, §2
As for B1, the EC50 amounted to 0.248 nM.

The molecule B2 registered an EC50 of 0.297 nM.

In turn, B3 showed an EC50 of 0.428 nM.

In the case of B4, the EC50 is 0.213 nM.
